Results: patent US12269859B2, “Synthetic immune receptors and methods of use thereof” (Angeles Therapeutics, Inc., priority 2016, dated 2025)

B1: 091316-A01 (protein)
chain: MALPVTALLLPLALLLHAARPLEGKPIPNPLLGLDSTGSGEDLKNVFPPEVAVFEPSKAEIAHTQKATLVCLATGFYPDHVELSWWVNGKEVHSGVCTDPQPLKEQPALNDSRYCLSSRLRVSATFWQNPRNHFRCQVQFYGLSENDEWTQDRAKPVTQIVSAEAWGRADCGITSASYHQGVLSATILYEILLGKATLYAVLVSALVLMAMVKRKDSRGRAKRSGSGATNFSLLKQAGDVEENPGPTSMALPVTALLLPLALLLHAARPDIVMTQAAPSIPVTPGESVSISCRSDKSLLHSNGNTYLFWFLQRPGQSPQLLIYRMSNLASGVPDRFSGSGSGTAFTLRISGVEAEDVGVYYCMQHLEYPYTFGGGTKLEIKGGGGSGGGGSGGGGSQVQLQQSGPELVKPGASVKMSCKASGYAFSSSWLNWVRQRPGKGLEWIGRIYPGDGENHYNGKFKGKATLTADKSSSTGYMQLSSLTSEDSAVYFCASYYEGGYWGQGTLITVSATREQKLISEEDGSGIQNPDPAVYQLRDSKSSDKSVCLFTDFDSQTNVSQSKDSDVYITDKCVLDMRSMDFKSNSAVAWSNKSDFACANAFNNSIIPEDTFFPSSDVPCDVKLVEKSFETDTNLNFQNLSVIGFRILLLKVAGFNLLMTLRLWSSRAKRSGSGVKQTLNFDLLKLAGDVESNPGPSRGHMTEYKPTVRLATRDDVPRAVRTLAAAFADYPATRHTVDPDRHIERVTELQELFLTRVGLDIGKVWVADDGAAVAVWTTPESVEAGAVFAEIGPRMAELSGSRLAAQQQMEGLLAPHRPKEPAWFLATVGVSPDHQGKGLGSAVVLPGVEAAERAGVPAFLETSAPRNLPFYERLGFTVTADVEVPEGPRTWCMTRKPGA
modifications: Synthetic Immune Receptor (SIR)
B2: 041416-N03 (protein)
chain: MALPVTALLLPLALLLHAARPDIVMTQSHKFMSTSVGDRVSVTCKASQNVGNNVAWYQQKPGQSPKVLIYSASYRYSGVPDRFTGSGSGTDFTLTISNVQSEDLAEYFCQQYNTYPFTFGSGTKLEIKLEGKPIPNPLLGLDSTGSGEDLKNVFPPEVAVFEPSKAEIAHTQKATLVCLATGFYPDHVELSWWVNGKEVHSGVCTDPQPLKEQPALNDSRYCLSSRLRVSATFWQNPRNHFRCQVQFYGLSENDEWTQDRAKPVTQIVSAEAWGRADCGITSASYHQGVLSATILYEILLGKATLYAVLVSALVLMAMVKRKDSRGRAKRSGSGATNFSLLKQAGDVEENPGPTSMDWIWRILFLVGAATGAHSFEEVQLEESGGGLVQPGGSMKLSCVASGFTFSNYWMNWVRQSPEKGLEWVAEIRFKSHNYATHFAESVKGRFTISRDDSKSSVYLQMNNLRAEDTGIYYCTRRIGNSDYDWWYFDVWGAGTSVTVSSASTREQKLISEEDGSGTPFPSLAPPIMLLVDGKQQMVVVCLVLDVAPPGLDSPIWFSAGNGSALDAFTYGPSPATDGTWTNLAHLSLPSEELASWEPLVCHTGPGAEGHSRSTQPMHLSGEASTARTCPQEPLRGTPGGALWLGVLRLLLFKLLLFDLLLTCSCLCDPAGPLPSPATTTRLRALGSHRLHPATETGGREATSSPRPQPRDRRWGDTPPGRKPGSPVRAKRSGSGVKQTLNFDLLKLAGDVESNPGPSRGHMTEYKPTVRLATRDDVPRAVRTLAAAFADYPATRHTVDPDRHIERVTELQELFLTRVGLDIGKVWVADDGAAVAVWTTPESVEAGAVFAEIGPRMAELSGSRLAAQQQMEGLLAPHRPKEPAWFLATVGVSPDHQGKGLGSAVVLPGVEAAERAGVPAFLETSAPRNLPFYERLGFTVTADVEVPEGPRTWCMTRKPGA
modifications: Polynucleotide encoding a Synthetic Immune Receptor (SIR)
B3: 090116-K02 (protein)
chain: MALPVTALLLPLALLLHAARPLEGKPIPNPLLGLDSTGSGEDLKNVFPPEVAVFEPSKAEIAHTQKATLVCLATGFYPDHVELSWWVNGKEVHSGVCTDPQPLKEQPALNDSRYCLSSRLRVSATFWQNPRNHFRCQVQFYGLSENDEWTQDRAKPVTQIVSAEAWGRADCGITSASYHQGVLSATILYEILLGKATLYAVLVSALVLMAMVKRKDSRGRAKRSGSGATNFSLLKQAGDVEENPGPTSMALPVTALLLPLALLLHAARPDIVMTQSHKFMSTSVGDRVSVTCKASQNVGNNVAWYQQKPGQSPKVLIYSASYRYSGVPDRFTGSGSGTDFTLTISNVQSEDLAEYFCQQYNTYPFTFGSGTKLEIKGGGGSGGGGSGGGGSEVQLEESGGGLVQPGGSMKLSCVASGFTFSNYWMNWVRQSPEKGLEWVAEIRFKSHNYATHFAESVKGRFTISRDDSKSSVYLQMNNLRAEDTGIYYCTRRIGNSDYDWWYFDVWGAGTSVTVSSASTREQKLISEEDGSGIQNPDPAVYQLRDSKSSDKSVCLFTDFDSQTNVSQSKDSDVYITDKCVLDMRSMDFKSNSAVAWSNKSDFACANAFNNSIIPEDTFFPSSDVPCDVKLVEKSFETDTNLNFQNLSVIGFRILLLKVAGFNLLMTLRLWSSRAKRSGSGVKQTLNFDLLKLAGDVESNPGPSRGHMTEYKPTVRLATRDDVPRAVRTLAAAFADYPATRHTVDPDRHIERVTELQELFLTRVGLDIGKVWVADDGAAVAVWTTPESVEAGAVFAEIGPRMAELSGSRLAAQQQMEGLLAPHRPKEPAWFLATVGVSPDHQGKGLGSAVVLPGVEAAERAGVPAFLETSAPRNLPFYERLGFTVTADVEVPEGPRTWCMTRKPGA
modifications: Synthetic Immune Receptor (SIR)
B4: 083016-B06 (protein)
chain: MALPVTALLLPLALLLHAARPLEGKPIPNPLLGLDSTGSGEDLKNVFPPEVAVFEPSKAEIAHTQKATLVCLATGFYPDHVELSWWVNGKEVHSGVCTDPQPLKEQPALNDSRYCLSSRLRVSATFWQNPRNHFRCQVQFYGLSENDEWTQDRAKPVTQIVSAEAWGRADCGITSASYHQGVLSATILYEILLGKATLYAVLVSALVLMAMVKRKDSRGRAKRSGSGATNFSLLKQAGDVEENPGPTSMALPVTALLLPLALLLHAARPDIVMTQSHKFMSTSVGDRVSVTCKASQNVGNNVAWYQQKPGQSPKVLIYSASYRYSGVPDRFTGSGSGTDFTLTISNVQSEDLAEYFCQQYNTYPFTFGSGTKLEIKGGGGSGGGGSGGGGSEVQLEESGGGLVQPGGSMKLSCVASGFTFSNYWMNWVRQSPEKGLEWVAEIRFKSHNYATHFAESVKGRFTISRDDSKSSVYLQMNNLRAEDTGIYYCTRRIGNSDYDWWYFDVWGAGTSVTVSSASTREQKLISEEDLGSGTPFPSLAPPIMLLVDGKQQMVVVCLVLDVAPPGLDSPIWFSAGNGSALDAFTYGPSPATDGTWTNLAHLSLPSEELASWEPLVCHTGPGAEGHSRSTQPMHLSGEASTARTCPQEPLRGTPGGALWLGVLRLLLFKLLLFDLLLTCSCLCDPAGPLPSPATTTRLRALGSHRLHPATETGGREATSSPRPQPRDRRWGDTPPGRKPGSPVRAKRSGSGVKQTLNFDLLKLAGDVESNPGPSRSRGHMTEYKPTVRLATRDDVPRAVRTLAAAFADYPATRHTVDPDRHIERVTELQELFLTRVGLDIGKVWVADDGAAVAVWTTPESVEAGAVFAEIGPRMAELSGSRLAAQQQMEGLLAPHRPKEPAWFLATVGVSPDHQGKGLGSAVVLPGVEAAERAGVPAFLETSAPRNLPFYERLGFTVTADVEVPEGPRTWCMTRKPGA
modifications: Polynucleotide encoding a Synthetic Immune Receptor (SIR)
B5: 110116-J04 (protein)
chain: MALPVTALLLPLALLLHAARPLEQKLISEEDLGSGDRPDPAVYQLRDSKSSDKSVCLFTDFDSQTNVSQSKDSDVYITDKCVLDMRSMDFKSNSAVAWSNKSDFACANAFNNSIIPEDTFFPSPESSCDVKLVEKSFETDTNLNFQNLSVIGFRILLLKVAGFNLLMTLRLWSSSSRAKRSGSGVKQTLNFDLLKLAGDVESNPGPTSMALPVTALLLPLALLLHAARPDIQMTQSPASLSASVGETVTIICRASVNIYSYLAWYQQKQGKSPQLLVYNAKILAEGVPSRFSGSGSGTQFSLKINSLQPEDFGSYYCQHHYGTFTFGSGTKLEIKRGGGGSGGGGSGGGGSQVQLKESGPGLVAPSQSLSITCTISGFSLTSYGVHWVRQPPGKGLEWLVVIWSDGSTTYNSALKSRLSISKDNSKSQVFLKMNSLQTDDTAIYYCASHYGSTLAFASWGHGTLVTVSAATRGKPIPNPLLGLDSTGSGEDLKNVFPPEVAVFEPSEAEISHTQKATLVCLATGFYPDHVELSWWVNGKEVHSGVCTDPQPLKEQPALNDSRYCLSSRLRVSATFWQNPRNHFRCQVQFYGLSENDEWTQDRAKPVTQIVSAEAWGRADCGFTSESYQQGVLSATILYEILLGKATLYAVLVSALVLMAMVKRKDSRGRAKRSGSGATNFSLLKQAGDVEENPGPSRGHMTEYKPTVRLATRDDVPRAVRTLAAAFADYPATRHTVDPDRHIERVTELQELFLTRVGLDIGKVWVADDGAAVAVWTTPESVEAGAVFAEIGPRMAELSGSRLAAQQQMEGLLAPHRPKEPAWFLATVGVSPDHQGKGLGSAVVLPGVEAAERAGVPAFLETSAPRNLPFYERLGFTVTADVEVPEGPRTWCMTRKPGA
modifications: Synthetic Immune Receptor (SIR)
B6: 032216-Y07 (protein)
chain: MALPVTALLLPLALLLHAARPDIVMTQSHKFMSTSVGDRVSVTCKASQNVGNNVAWYQQKPGQSPKVLIYSASYRYSGVPDRFTGSGSGTDFTLTISNVQSEDLAEYFCQQYNTYPFTFGSGTKLEIKLEGKPIPNPLLGLDSTGSGEDLKNVFPPEVAVFEPSKAEIAHTQKATLVCLATGFYPDHVELSWWVNGKEVHSGVCTDPQPLKEQPALNDSRYCLSSRLRVSATFWQNPRNHFRCQVQFYGLSENDEWTQDRAKPVTQIVSAEAWGRADCGITSASYHQGVLSATILYEILLGKATLYAVLVSALVLMAMVKRKDSRGRAKRSGSGATNFSLLKQAGDVEENPGPTSMDWIWRILFLVGAATGAHSFEEVQLEESGGGLVQPGGSMKLSCVASGFTFSNYWMNWVRQSPEKGLEWVAEIRFKSHNYATHFAESVKGRFTISRDDSKSSVYLQMNNLRAEDTGIYYCTRRIGNSDYDWWYFDVWGAGTSVTVSSASTREQKLISEEDGSGIQNPDPAVYQLRDSKSSDKSVCLFTDFDSQTNVSQSKDSDVYITDKCVLDMRSMDFKSNSAVAWSNKSDFACANAFNNSIIPEDTFFPSSDVPCDVKLVEKSFETDTNLNFQNLSVIGFRILLLKVAGFNLLMTLRLWSSRAKRSGSGVKQTLNFDLLKLAGDVESNPGPSRGHMTEYKPTVRLATRDDVPRAVRTLAAAFADYPATRHTVDPDRHIERVTELQELFLTRVGLDIGKVWVADDGAAVAVWTTPESVEAGAVFAEIGPRMAELSGSRLAAQQQMEGLLAPHRPKEPAWFLATVGVSPDHQGKGLGSAVVLPGVEAAERAGVPAFLETSAPRNLPFYERLGFTVTADVEVPEGPRTWCMTRKPGA
modifications: Polynucleotide encoding a Synthetic Immune Receptor (SIR)

Test system: target antigen-expressing cell line
Test: Jurkat NFAT-GFP assay, coculture with target cell lines expressing the respective target antigen (summary Table 10A)
Format: cell-based, human
Set-up: key: The signs +/−, +, 2+ etc. after the name of the cell lines indicate the relative degree of positivity on the Jurkat-NFAT-GFP assay as measured by the % GFP positive cells; +: relative degree of positivity on the Jurkat-NFAT-GFP assay as measured by the % GFP positive cells; 2+: relative degree of positivity on the Jurkat-NFAT-GFP assay as measured by the % GFP positive cells
How it was run: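 Jurkat cells carrying an NFAT-site IL-2 promoter driving GFP were lentivirally transduced with SIRs, puromycin-selected, then cocultured with antigen-expressing target cells at E:T about 1:2 for about 4–18 hours. GFP induction was read by flow cytometry as % GFP-positive cells versus parental Jurkat-NFAT-GFP.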

| Molecule | NFAT-GFP ASSAY Positive Cell lines (coculture with HEL cells) | NFAT-GFP ASSAY Positive Cell lines (coculture with RAJI cells) | NFAT-GFP ASSAY Positive Cell lines (coculture with NALM6 cells) |
| --- | --- | --- | --- |
| B1 | HEL (+/−) | – | – |
| B2 | – | RAJI (+/−) | – |
| B3 | – | RAJI (2+), NALM6 | (2+) |
| B4 | – | RAJI (+) | – |
| B5 | – | RAJI (2+), NALM6 | (2+) |
| B6 | – | RAJI (+) | – |
